Measurements from patent US20060263381A1.

Target: HLA-A*0201 molecule (human)
Assay: T2 cells loaded with 100 µM peptide, Brefeldin A, flow cytometry with BB7.2 at 0-8 h
Conditions: remark: other sources report otherwise

DC50 (time for loss of 50% of the complexes): < 2 h
B1: p262 (…) (peptide)
peptide: YEFLWGPRA
